# Source: patent publication US6753151B1, “Interactions of Ku polypeptides and applications thereof” (Kudos Pharmaceuticals Limited, priority 1999, dated 2004)
# Where no end group is shown, it is not given here. The star is where a group is joined. Biotin = O=C1N[C@H]2[C@H](CS[C@H]2CCCCC(=O)*)N1
# What was measured:
# DNA-PKcs [1] = biological target: T1, DNA-PKcs (Homo sapiens, UniProt P78527); test: Peptide interaction assay with purified DNA-PKcs; format: binding; set-up: The starting material for purification of DNA-PKcs was HeLa NE; host or cells: HeLa nuclear extract; purified in house over Q Sepharose, heparin agarose, phenyl Sepharose and Mono-S; conditions: 50 mM and 100 mM KCl; streptavidin paramagnetic beads; silver-staining
# Protocol: 5 Peptides with the sequence Ser-Gly-Ser-Gly (SEQ ID NO:10) as a linker to 12 amino acid residues (SEQ ID NOS:1 and 12-15) derived from the sequence of Ku80 (see FIG. 5) were generated with a biotin moiety at the N-terminus (Khiron Technologies). Each peptide (2×10^11 moles) was incubated with either 400 ng (˜10^12 moles) of purified DNA-PKcs or 100 μg of crude HeLa NE in 100 μl (final) volume of Z′ buffer (see above for buffer composition). Binding reactions were incubated for 2.75 hours at 4° C., then a 100 μl suspension of para-magnetic beads, containing 1:5 dilution of Dynabeads (Dynal) in Z′ buffer, was added for a final 0.25 hour incubation. Dynabeads are conjugated with Streptavidin. The bead-protein complexes were be retrieved from the solution using a magnet and washed 5 times with 0.5 ml of Buffer X (see above for buffer composition). […]
# The inventors synthesised a series of peptides (Peptides A-E, SEQ ID NOS:1 and 12-15) derived in sequence from the extreme C-terminus of Ku80 (residues 609 to 733, SEQ ID NO:11: see FIG. 5 and Materials and Methods). […] The beads were recovered using a magnet, washed extensively in buffer containing the same concentration of KCl as the incubation buffer X (25 mM HEPES pH 7.5, 50 mM/100 mM KCl, 2 mM MgCl2, 0.4% NP-40), and the bound protein eluted in SDS-PAGE sample buffer, resolved on a 6% polyacrylamide gel and detected using silver-staining.
# DNA-PKcs [2] = biological target: T1, DNA-PKcs; test: Peptide interaction assay with crude HeLa cell nuclear extract; format: binding; set-up: incubated with ˜100 μg (10 μl) of HeLa Cell nuclear extract (NE); host or cells: HeLa cell nuclear extract
# Protocol: (§1) 5 Peptides with the sequence Ser-Gly-Ser-Gly (SEQ ID NO:10) as a linker to 12 amino acid residues (SEQ ID NOS:1 and 12-15) derived from the sequence of Ku80 (see FIG. 5) were generated with a biotin moiety at the N-terminus (Khiron Technologies). Each peptide (2×10^11 moles) was incubated with either 400 ng (˜10^12 moles) of purified DNA-PKcs or 100 μg of crude HeLa NE in 100 μl (final) volume of Z′ buffer (see above for buffer composition). Binding reactions were incubated for 2.75 hours at 4° C., then a 100 μl suspension of para-magnetic beads, containing 1:5 dilution of Dynabeads (Dynal) in Z′ buffer, was added for a final 0.25 hour incubation. Dynabeads are conjugated with Streptavidin. The bead-protein complexes were be retrieved from the solution using a magnet and washed 5 times with 0.5 ml of Buffer X (see above for buffer composition). Proteins retained on the beads were eluted in SDS gel-loading buffer and subjected to polyacrylamide gel eletrophoresis and silver staining.
# The ability of each of the five peptides to retrieve proteins from a crude unfractionated HeLa cell nuclear extract was determined. […] Any proteins remaing bound to the peptide/beads was eluted in SDS-PAGE buffer, resolved on a 6% polyacrylamide gel and detected with silver-staining. […]
# [3] = biological target: T2, DNA-dependent protein kinase catalytic subunit (DNA-PKcs), human, from HeLa cell nuclear extract (human, UniProt P78527 1-4128); test: biotinylated peptide with purified DNA-PKcs, streptavidin magnetic beads, 50 mM or 100 mM KCl, silver stain
# T2 construct: mature; Used either within crude HeLa nuclear extract or as an essentially homogeneous preparation (about 1 Ku per 840 DNA-PKcs molecules); also called purified DNA-PKcs; homogeneous DNA-PKcs
# Protocol: as §1, with “12–15)” for “12-15)”, “(2 ×10^11” for “(2×10^11”, “(~10^12” for “(˜10^12”, “Z'” for “Z′”
# T2 sequence (P78527 whole entry): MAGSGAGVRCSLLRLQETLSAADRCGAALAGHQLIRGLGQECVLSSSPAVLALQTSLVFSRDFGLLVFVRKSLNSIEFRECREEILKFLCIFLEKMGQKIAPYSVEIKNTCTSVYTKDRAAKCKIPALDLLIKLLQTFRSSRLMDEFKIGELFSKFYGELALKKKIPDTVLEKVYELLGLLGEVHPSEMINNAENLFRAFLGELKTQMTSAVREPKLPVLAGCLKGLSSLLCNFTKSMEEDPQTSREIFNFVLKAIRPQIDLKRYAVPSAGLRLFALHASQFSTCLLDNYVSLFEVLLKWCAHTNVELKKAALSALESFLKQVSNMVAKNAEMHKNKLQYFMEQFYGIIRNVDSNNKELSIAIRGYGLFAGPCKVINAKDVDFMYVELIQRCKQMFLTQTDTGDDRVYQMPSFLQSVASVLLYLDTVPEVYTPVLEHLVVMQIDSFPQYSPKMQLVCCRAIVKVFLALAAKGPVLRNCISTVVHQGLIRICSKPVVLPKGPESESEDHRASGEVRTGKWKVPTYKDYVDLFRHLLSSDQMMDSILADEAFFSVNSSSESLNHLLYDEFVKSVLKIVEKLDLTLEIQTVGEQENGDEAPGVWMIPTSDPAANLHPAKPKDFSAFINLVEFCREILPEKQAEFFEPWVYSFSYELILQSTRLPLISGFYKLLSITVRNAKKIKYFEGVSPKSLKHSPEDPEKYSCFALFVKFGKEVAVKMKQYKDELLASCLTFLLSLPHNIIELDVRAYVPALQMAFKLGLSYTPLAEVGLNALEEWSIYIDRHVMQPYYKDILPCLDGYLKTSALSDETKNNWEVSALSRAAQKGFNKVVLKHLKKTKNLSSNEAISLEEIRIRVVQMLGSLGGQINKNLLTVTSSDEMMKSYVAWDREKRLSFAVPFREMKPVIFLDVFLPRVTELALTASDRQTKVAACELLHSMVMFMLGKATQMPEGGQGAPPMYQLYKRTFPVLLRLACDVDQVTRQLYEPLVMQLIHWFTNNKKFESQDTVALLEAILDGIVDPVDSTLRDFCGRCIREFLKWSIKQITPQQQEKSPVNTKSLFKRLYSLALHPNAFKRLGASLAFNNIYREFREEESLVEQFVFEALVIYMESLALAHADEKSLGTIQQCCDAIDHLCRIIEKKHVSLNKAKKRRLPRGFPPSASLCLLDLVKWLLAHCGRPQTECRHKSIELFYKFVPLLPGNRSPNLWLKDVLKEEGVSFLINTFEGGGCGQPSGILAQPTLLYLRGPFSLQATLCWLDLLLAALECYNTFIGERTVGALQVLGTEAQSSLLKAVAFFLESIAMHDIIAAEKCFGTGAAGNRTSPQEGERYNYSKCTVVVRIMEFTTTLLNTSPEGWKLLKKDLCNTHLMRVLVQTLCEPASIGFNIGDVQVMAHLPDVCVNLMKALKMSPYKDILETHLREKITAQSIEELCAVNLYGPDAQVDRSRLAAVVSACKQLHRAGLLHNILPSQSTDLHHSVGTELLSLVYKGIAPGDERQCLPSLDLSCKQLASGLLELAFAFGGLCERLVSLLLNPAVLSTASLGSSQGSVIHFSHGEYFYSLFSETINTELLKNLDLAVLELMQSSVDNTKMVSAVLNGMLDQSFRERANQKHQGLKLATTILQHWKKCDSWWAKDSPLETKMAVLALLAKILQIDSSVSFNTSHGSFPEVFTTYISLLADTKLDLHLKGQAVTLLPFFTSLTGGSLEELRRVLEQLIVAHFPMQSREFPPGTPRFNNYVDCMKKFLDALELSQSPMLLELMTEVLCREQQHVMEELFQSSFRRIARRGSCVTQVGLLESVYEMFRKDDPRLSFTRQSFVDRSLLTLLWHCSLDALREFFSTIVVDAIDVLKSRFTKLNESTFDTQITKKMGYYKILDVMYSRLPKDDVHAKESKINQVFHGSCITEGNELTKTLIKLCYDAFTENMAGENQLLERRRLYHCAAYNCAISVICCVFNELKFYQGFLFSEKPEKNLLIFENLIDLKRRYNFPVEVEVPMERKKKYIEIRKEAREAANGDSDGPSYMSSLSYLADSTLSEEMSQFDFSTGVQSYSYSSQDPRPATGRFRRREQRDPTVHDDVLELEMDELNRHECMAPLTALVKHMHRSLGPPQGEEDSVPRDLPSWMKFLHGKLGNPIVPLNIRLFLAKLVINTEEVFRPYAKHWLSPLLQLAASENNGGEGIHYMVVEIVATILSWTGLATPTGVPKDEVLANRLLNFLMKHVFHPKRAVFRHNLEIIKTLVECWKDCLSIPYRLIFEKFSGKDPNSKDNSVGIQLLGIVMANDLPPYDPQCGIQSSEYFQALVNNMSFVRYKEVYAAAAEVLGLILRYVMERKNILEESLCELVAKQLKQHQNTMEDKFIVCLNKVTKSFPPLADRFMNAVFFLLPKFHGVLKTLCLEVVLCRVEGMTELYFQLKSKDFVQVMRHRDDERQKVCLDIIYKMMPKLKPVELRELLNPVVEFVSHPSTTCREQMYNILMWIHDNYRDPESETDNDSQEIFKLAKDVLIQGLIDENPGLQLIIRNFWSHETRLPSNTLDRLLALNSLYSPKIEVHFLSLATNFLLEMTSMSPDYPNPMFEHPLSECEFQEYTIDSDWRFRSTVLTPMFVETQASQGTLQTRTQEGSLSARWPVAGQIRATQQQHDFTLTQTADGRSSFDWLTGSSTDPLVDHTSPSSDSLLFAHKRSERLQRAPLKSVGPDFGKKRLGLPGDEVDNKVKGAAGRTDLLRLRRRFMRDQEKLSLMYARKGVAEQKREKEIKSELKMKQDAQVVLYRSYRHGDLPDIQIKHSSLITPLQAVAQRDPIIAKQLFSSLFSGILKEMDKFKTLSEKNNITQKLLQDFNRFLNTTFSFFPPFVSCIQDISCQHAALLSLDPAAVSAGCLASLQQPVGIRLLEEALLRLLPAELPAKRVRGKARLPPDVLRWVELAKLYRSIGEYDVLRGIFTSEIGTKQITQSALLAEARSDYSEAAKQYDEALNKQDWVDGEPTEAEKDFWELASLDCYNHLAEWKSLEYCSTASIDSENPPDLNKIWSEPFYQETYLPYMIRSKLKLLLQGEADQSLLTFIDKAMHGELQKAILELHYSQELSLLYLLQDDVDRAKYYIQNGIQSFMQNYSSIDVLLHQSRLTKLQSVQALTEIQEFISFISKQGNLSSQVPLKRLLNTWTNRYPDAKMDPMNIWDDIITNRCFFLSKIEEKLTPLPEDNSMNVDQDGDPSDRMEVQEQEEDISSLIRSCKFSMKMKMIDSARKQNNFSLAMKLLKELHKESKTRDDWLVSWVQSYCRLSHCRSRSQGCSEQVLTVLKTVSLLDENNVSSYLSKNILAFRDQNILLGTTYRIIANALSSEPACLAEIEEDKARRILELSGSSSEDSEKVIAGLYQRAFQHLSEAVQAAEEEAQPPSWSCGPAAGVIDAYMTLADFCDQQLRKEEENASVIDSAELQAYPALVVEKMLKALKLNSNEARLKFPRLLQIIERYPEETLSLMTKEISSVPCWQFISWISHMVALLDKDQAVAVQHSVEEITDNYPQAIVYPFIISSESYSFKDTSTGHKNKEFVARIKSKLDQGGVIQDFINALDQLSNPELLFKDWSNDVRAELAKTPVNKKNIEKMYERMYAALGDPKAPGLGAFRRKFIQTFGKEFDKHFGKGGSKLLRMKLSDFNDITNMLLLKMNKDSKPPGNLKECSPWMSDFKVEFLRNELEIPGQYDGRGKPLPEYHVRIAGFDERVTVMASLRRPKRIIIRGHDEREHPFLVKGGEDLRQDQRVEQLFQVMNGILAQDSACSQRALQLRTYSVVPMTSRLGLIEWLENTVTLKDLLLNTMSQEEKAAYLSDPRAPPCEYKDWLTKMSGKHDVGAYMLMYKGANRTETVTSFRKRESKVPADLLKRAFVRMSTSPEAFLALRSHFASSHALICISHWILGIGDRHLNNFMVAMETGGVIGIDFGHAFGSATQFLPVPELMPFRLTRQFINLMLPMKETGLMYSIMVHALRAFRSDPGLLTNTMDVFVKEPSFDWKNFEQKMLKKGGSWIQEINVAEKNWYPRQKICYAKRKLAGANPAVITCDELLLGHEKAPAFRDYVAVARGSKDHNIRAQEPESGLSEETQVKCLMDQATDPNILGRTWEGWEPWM
# T1 sequence (P78527 whole entry): as above
binding of purified DNA-PKcs by biotinylated peptide (DNA-PKcs [1]),depletion of DNA-PKcs from HeLa nuclear extract (DNA-PKcs [2]; additional studies),binding result [3],Molecule,"proteins retrieved from HeLa nuclear extract by biotinylated peptide (DNA-PKcs [2]; 50 mM KCl, streptavidin magnetic beads, silver-staining, western blotting)"
,,no binding,Biotin-SGSGLAPKDKPSGDTA [Peptide B (biotin-Ser-Gly-Ser-Gly linked to 12 residues of the Ku80 C-terminus)],
,,no binding,Biotin-SGSGPSGDTAAVFEEG [Peptide C (biotin-Ser-Gly-Ser-Gly linked to 12 residues of the Ku80 C-terminus)],
,,no binding,Biotin-SGSGAVFEEGGDVDDL [Peptide D (biotin-Ser-Gly-Ser-Gly linked to 12 residues of the Ku80 C-terminus)],

# Further lines, the molecule ahead of its results:
Molecule,binding of purified DNA-PKcs by biotinylated peptide (DNA-PKcs [1]),depletion of DNA-PKcs from HeLa nuclear extract (DNA-PKcs [2]; additional studies),binding result [3],"proteins retrieved from HeLa nuclear extract by biotinylated peptide (DNA-PKcs [2]; 50 mM KCl, streptavidin magnetic beads, silver-staining, western blotting)"
EGGDVDDLLDMI [Peptide E],interacts directly with DNA-PKcs,60-70%,,affinity purified predominantly a single protein species of high molecular weight
Biotin-SGSGEEAKKFLAPKDK [Peptide A (biotin-Ser-Gly-Ser-Gly linked to 12 residues of the Ku80 C-terminus)],,,no binding,
